Data as given in patent publication US20070172470A1, “Phosphatase regulation of nucleic acid transcription” (The Regents of the University of California, priority 2003, published 2007).

Tests used:
[1] = test system: rat insulin 1 promoter-luciferase reporter gene; experiment: Rat insulin promoter-luciferase assay with LMX1 and E47; assay type: cell-based; conditions: LMX1 and E47 co-expressed
Excerpt: (§1) Gal4-DNA binding domain-SCP1 fusion protein expression plasmids-were cotransfected in HEK293 cells with a Gal 4-TKLuc reporter plasmid and luciferase gene expression quantitated. In all panels, results of triplicate transfections are shown +/− SD. Data is expressed as fold-activation experimental/control). […] The indicated amounts of SCP1 or mutant SCP1 expression plasmids were cotransfected in HEK293 cells along with Gal 4-VP16 expression and Gal 4-TK-Luc reporter plasmids and luciferase activity was quantitated. […] The indicated receptor expression plasmids were cotransfected with their cognate promoter-reporter plasmids with or without SCP1 or mutant SCP1 expression plasmids. Cells were treated or untreated with receptor-specific ligands as described infra. […] The indicated concentrations of SCP1 and mutant SCP1 expression plasmids were cotransfected with LMX1 and E47 expression plasmids and the rat insulin 1 promoter-luciferase reporter gene. Luciferase activity was measured as described.
(§2) Tissue Culture and Transfections: Human 293, COS7 and CV1 cells were grown at 37° C. in DMEM supplemented with 10% normal calf serum (BRL). Sub-confluent cells were transfected in 6 well tissue culture dishes using Effectene (Qiagen) according to the manufacturer's instructions. Reporter and activator plasmids (100 ng each) and Flag SCP1 (80 ng) or its mutant were used per well. […]

[2] = test system: P19 mouse embryonic stem cells; experiment: Neuronal differentiation of P19 cells; assay type: cell-based; conditions: clonal P19 line, retinoic acid, selective medium
Protocol: P19 cells, C, differentiated GFP expressing P19 cells; D, differentiated SCP1-expressing P19 cells; F, differentiated REST/NRSF-expressing P19 cells. Numbers of NLC per field are shown. *p=0.001 compared to WT 19 cells; **p=0.008 compared to WT P19 cell using student's t-test.
P19 stably expressing REST/NRSF.
These cell lines were maintained in α-MEM/10%FBS with […] G418. To induce neuronal differentiation, P19 cells were allowed to aggregate in bacterial grade petri-dishes (Fisher) at a seeding density of 1×10^5cells/ml in the presence of 1×10^−6M all-trans retinoic acid. After 3 days of aggregation, cells were dissociated into single cells by 0.05% trypsin-0.53 mM EDTA (Gibco). Trypsin was removed by centrifugation and the cells were plated in 6 cm tissue culture dishes (Nunc). at a density of 1×10^5 cells/cm^2 in Neurobasal medium/N2 supplement (Invitrogen) in the presence or absence of 1 μg/ml fibronectin (Invitrogen). The cells were cultured for 5 days after which average cell numbers/field were determined. Cells were either lysed to prepare total RNA (Rneasy kit, Qiagen) or stained with TuJ1 antibody (Babco).
For immunostaining, cells were fixed for 10 mins with 4% paraformaldehyde. TuJ1 antibody was used at 1:2000 and secondary antibody used was FITC-conjuagated anti-mouse (1:3000).

[3] = test system: ElALuc, pGL3-Luc and Gal4-TATA-Luc constructs; experiment: Luciferase reporter assay, basal promoter activity; assay type: cell-based, human; conditions: cotransfected
Excerpt: as §1, §2

[4] = test system: Gal 4-TK-Luc reporter stimulated by Gal 4-VP16; experiment: Luciferase reporter assay, Gal 4-VP16 stimulated gene expression; assay type: cell-based, human; conditions: HEK293 cells
Excerpt: as §1, §2

[5] = test system: glucocorticoid receptor activity on GRE-TK-Luc construct; experiment: Luciferase reporter assay, dexamethasone-stimulated glucocorticoid receptor; assay type: cell-based, human; conditions: 100 nM dexamethasone
Excerpt: as §1, §2

B1: SCP1: small CTD phosphatase-1, full-length 261 aa human protein, SEQ ID NO:2 (protein, listed as Homo sapiens)
chain: MDSSAVITQISKEEARGPLRGKGDQKSAASQKPRSRGILHSLFCCVCRDDGEALPAHSGAPLLVEENGAIPKTPVQYLLPEAKAQDSDKICVVIDLDETLVHSSFKPVNNADFIIPVEIDGVVHQVYVLKRPHVDEFLQRMGELFECVLFTASLAKYADPVADLLDKWGAFRARLFRESCVFHRGNYVKDLSRLGRDLRRVLILDNSPASYVFHPDNAVPVASWFDNMSDTELHDLLPFFEQLSRVDDVYSVLRQPRPGS
inhibition of luciferase expression ([1]; 40 ng SCP1 plasmid alone): > 90% | inhibition of luciferase expression ([1]; 40 ng SCP1 plasmid plus 20 ng mutant SCP1 plasmid): ~20% | effect on neuronal differentiation [2]: did not affect the extent of neuronal differentiation | reporter gene expression from basal promoter constructs [3]: no significant effect | Gal 4-VP16 stimulated luciferase activity [4]: strongly inhibited | dexamethasone-stimulated glucocorticoid receptor activity [5]: inhibited
